Results reported in the supplement of paper PMC7877785.
± gives the uncertainty stated by the source.

Assay: self-splicing fitness, log relative to wild type (ln ratio); higher = more splicing; Tetrahymena group I intron in knt gene, E. coli kanamycin selection, DiMSum; sequences stand for … in CUCUCU…GGAGGGAAAAGUUAUCAGGCAUGCACCUGGUAGCUAGUCUUUAAACCAAUAGAUUGCAUCGGUUUAAAAGGCAAGACCGUCAAAUUGCGGGAAAGGGGUCAACAGCCGUUCAGUACCAAGUCUCAGGGGAAACUUUGAGAUGGCCUUGCAAAGGGUAUGGUAAUAAGCUGACGGACAUGGUCCUAACCACGCAGCCAAGUCCUAAGUCAACAGAUCUUCUGUUGAUAUGGAUGCAGUUCACAGACUAAAUGUCGGUCGGGGAAGAUGUAUUCUUCUCAUAAGAUAUAGUCGGACCUCUCCUUAAUGGGAGCUAGCGGAUGAAGUGAUGCAACACUGGAGCCGCUGGGAACUAAUUUGUAUGCGAAAGUAUAUUGAUUAGUUUUGGAGUACUCGUGGUCG
In short: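 The eight P1ex-region nucleotides of an intron in the knt kanamycin-resistance gene on pET-22b(+) were all randomised and the library put into E. coli BL21(DE3). Six replicate transformations were grown overnight at 37°C or 30°C on LB agar with or without 25 μg/mL kanamycin, together with 100 μg/mL carbenicillin, 50 μM IPTG and 0.2% rhamnose. Colonies were pooled and amplicon-sequenced on an Illumina HiSeq 2500. Fitness from DiMSum is the error-weighted combination of wild-type-normalised replicate fold changes, kanamycin over none.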

Row | Sequence | self-splicing fitness (ln) (30 °C) | self-splicing fitness (ln) (37 °C)
1 | GGUCAGCAAUAUUACGAAUC | -0.132 ± 0.14 | 0.365 ± 0.13
2 | GGUCAGCAAUAUUACGACCC | -2.52 ± 0.27 | -2.43 ± 0.41
3 | GGUCAGCAAUAUUACGACUA | 0.124 ± 0.092 | 0.866 ± 0.13
4 | GGUCAGCAAUAUUACGAGCU | -0.647 ± 0.097 | -0.497 ± 0.12
5 | GGUCAGCAAUAUUACGAUAU | 0.154 ± 0.071 | 0.391 ± 0.082
6 | GGUCAGCAAUAUUACGCAAU | -0.0569 ± 0.099 | 0.16 ± 0.12
7 | GGUCAGCAAUAUUACGCCUG | -2.9 ± 0.2 | -0.721 ± 0.12
8 | GGUCAGCAAUAUUACGCGCG | -0.298 ± 0.092 | -0.546 ± 0.11
9 | GGUCAGCAAUAUUACGCUGA | -3.21 ± 0.44 | -1.95 ± 0.32
10 | GGUCAGCAAUAUUACGGAAU | -0.593 ± 0.054 | -0.0986 ± 0.069
11 | GGUCAGCAAUAUUACGGUAA | -0.874 ± 0.071 | -0.111 ± 0.069
12 | GGUCAGCAAUAUUACGUACA | -0.423 ± 0.087 | 0.547 ± 0.14
13 | GGUCAGCAAUAUUACGUCGU | 0.302 ± 0.08 | 0.488 ± 0.082
14 | GGUCAGCAAUAUUACGUGAA | -0.356 ± 0.086 | 0.381 ± 0.096
15 | GGUCAGCAAUAUUACGUUGU | -1.51 ± 0.057 | -0.47 ± 0.068
16 | GGUGAGCAAUAUUACGAAUA | -2.09 ± 0.33 | 
17 | GGUGAGCAAUAUUACGAGGG | -3.16 ± 0.26 | -2.43 ± 0.24
18 | GGUGAGCAAUAUUACGCAGC |  | -1.93 ± 0.34
19 | GGUGAGCAAUAUUACGCGUG | -1.22 ± 0.16 | -1.52 ± 0.21
20 | GGUGAGCAAUAUUACGGAAC | -1.27 ± 0.21 | -0.837 ± 0.24
21 | GGUGAGCAAUAUUACGGCUC | -1.94 ± 0.24 | -0.104 ± 0.3
22 | GGUGAGCAAUAUUACGGGAG | -1.79 ± 0.28 | -2.68 ± 0.48
23 | GGUGAGCAAUAUUACGGGGG | -3.41 ± 0.43 | 
24 | GGUGAGCAAUAUUACGGGGU | -3.31 ± 0.17 | -2.94 ± 0.26
25 | GGUGAGCAAUAUUACGGGUG | -3.18 ± 0.26 | -2.7 ± 0.27

Row | Sequence | self-splicing fitness (ln) (30 °C) | self-splicing fitness (ln) (37 °C)
26 | GGUGAGCAAUAUUACGGGUU |  | -2.59 ± 0.36
27 | GGUGAGCAAUAUUACGGUCC | -1.66 ± 0.13 | -0.523 ± 0.15
28 | GGUGAGCAAUAUUACGUACU | -1.89 ± 0.14 | -1.75 ± 0.17
29 | GGUGAGCAAUAUUACGUAGA | -3.01 ± 0.33 | -2.19 ± 0.29
30 | GGUGAGCAAUAUUACGUAGG | -3.15 ± 0.27 | -2.07 ± 0.32
31 | GGUGAGCAAUAUUACGUAUC | -1.77 ± 0.1 | -0.807 ± 0.12
32 | GGUGAGCAAUAUUACGUGCC | -3.67 ± 0.33 | -2.67 ± 0.38
33 | GGUGAGCAAUAUUACGUGCU | -1.66 ± 0.18 | -1.74 ± 0.37
34 | GGUUAGCAAUAUUACGAAAC |  | -1.68 ± 0.41
35 | GGUUAGCAAUAUUACGAAGU | -0.268 ± 0.2 | -0.745 ± 0.18
36 | GGUUAGCAAUAUUACGACAC | 0.342 ± 0.2 | -0.137 ± 0.24
37 | GGUUAGCAAUAUUACGACCA | -1.69 ± 0.32 | -0.631 ± 0.3
38 | GGUUAGCAAUAUUACGAUAA | -0.985 ± 0.12 | -0.35 ± 0.14
39 | GGUUAGCAAUAUUACGAUCA | -0.0432 ± 0.15 | -0.342 ± 0.13
40 | GGUUAGCAAUAUUACGAUUC | -0.602 ± 0.11 | -0.718 ± 0.17
41 | GGUUAGCAAUAUUACGCACU | -2.48 ± 0.28 | -2.32 ± 0.25
42 | GGUUAGCAAUAUUACGCAUC | -0.527 ± 0.33 | -0.989 ± 0.38
43 | GGUUAGCAAUAUUACGCGGG | -3.71 ± 0.22 | -1.23 ± 0.12
44 | GGUUAGCAAUAUUACGGCAC | -0.473 ± 0.15 | -0.251 ± 0.18
45 | GGUUAGCAAUAUUACGGUCA | 0.387 ± 0.31 | -1.03 ± 0.12
46 | GGUUAGCAAUAUUACGUAGU | -1.03 ± 0.097 | -0.417 ± 0.12
47 | GGUUAGCAAUAUUACGUGUA | -1.7 ± 0.13 | -0.817 ± 0.1
48 | GGUUAGCAAUAUUACGUUGC | -2.41 ± 0.22 | -1.12 ± 0.42
49 | GUAAAGCAAUAUUACGAAGA | -1.9 ± 0.1 | -1.03 ± 0.12
50 | GUAAAGCAAUAUUACGACCG | -0.799 ± 0.43 | -0.23 ± 0.36

Row | Sequence | self-splicing fitness (ln) (30 °C) | self-splicing fitness (ln) (37 °C)
51 | GUAAAGCAAUAUUACGAGAA | -2.06 ± 0.14 | -0.181 ± 0.21
52 | GUAAAGCAAUAUUACGAUAA | -0.115 ± 0.076 | 0.632 ± 0.11
53 | GUAAAGCAAUAUUACGAUGU | -0.534 ± 0.081 | -0.0801 ± 0.1
54 | GUAAAGCAAUAUUACGCACC | -0.664 ± 0.49 | 
55 | GUAAAGCAAUAUUACGCCUC | -0.782 ± 0.12 | 0.463 ± 0.16
56 | GUAAAGCAAUAUUACGCGCC | -2.22 ± 0.2 | -1.03 ± 0.23
57 | GUAAAGCAAUAUUACGGAAG | -2.86 ± 0.18 | -1.36 ± 0.15
58 | GUAAAGCAAUAUUACGGAGG | -3.29 ± 0.37 | -2.45 ± 0.38
59 | GUAAAGCAAUAUUACGGAGU | -3.08 ± 0.26 | -2.81 ± 0.29
60 | GUAAAGCAAUAUUACGGGCA | -0.131 ± 0.13 | -0.0319 ± 0.15
61 | GUAAAGCAAUAUUACGGGGG | -3.31 ± 0.18 | -2.87 ± 0.31
62 | GUAAAGCAAUAUUACGGUAA | -1.09 ± 0.086 | -0.336 ± 0.11
63 | GUAAAGCAAUAUUACGUAGU | -2.42 ± 0.12 | -1.36 ± 0.18
64 | GUAAAGCAAUAUUACGUCCG | -0.907 ± 0.088 | -0.395 ± 0.14
65 | GUAAAGCAAUAUUACGUGCA | 0.139 ± 0.058 | 0.551 ± 0.093
66 | GUAAAGCAAUAUUACGUGUA | -1.44 ± 0.064 | -0.702 ± 0.087
67 | GUAAAGCAAUAUUACGUUGU | -3.6 ± 0.17 | -2.13 ± 0.19
68 | GUAAAGCAAUAUUACGUUUA | -1.08 ± 0.077 | -0.69 ± 0.11
69 | GUACAGCAAUAUUACGAAAG | -3.47 ± 0.1 | -1.04 ± 0.092
70 | GUACAGCAAUAUUACGAAGC | -1.83 ± 0.17 | -1.5 ± 0.28
71 | GUACAGCAAUAUUACGAAGG |  | -0.639 ± 0.25
72 | GUACAGCAAUAUUACGAGAU | -3.53 ± 0.16 | -2.03 ± 0.11
73 | GUACAGCAAUAUUACGAGCC | -1.6 ± 0.36 | -2.01 ± 0.46
74 | GUACAGCAAUAUUACGAUAU | -2.07 ± 0.1 | -1.48 ± 0.13
75 | GUACAGCAAUAUUACGAUGA | -1.87 ± 0.097 | -0.889 ± 0.11

Row | Sequence | self-splicing fitness (ln) (30 °C) | self-splicing fitness (ln) (37 °C)
76 | GUACAGCAAUAUUACGAUGU | -1.33 ± 0.081 | 0.106 ± 0.088
77 | GUACAGCAAUAUUACGCACA | -1.52 ± 0.11 | -0.471 ± 0.11
78 | GUACAGCAAUAUUACGCCAG | -3.75 ± 0.24 | -2.32 ± 0.45
79 | GUACAGCAAUAUUACGCCUC | -0.924 ± 0.14 | -0.219 ± 0.16
80 | GUACAGCAAUAUUACGCCUU | -1.23 ± 0.095 | -0.531 ± 0.11
81 | GUACAGCAAUAUUACGCGUC | -3.1 ± 0.21 | -0.709 ± 0.14
82 | GUACAGCAAUAUUACGCUCC | -1.81 ± 0.29 | -0.404 ± 0.23
83 | GUACAGCAAUAUUACGCUUA | -1.58 ± 0.08 | -1.03 ± 0.091
84 | GUACAGCAAUAUUACGGAAA | -2.77 ± 0.22 | -2.72 ± 0.25
85 | GUACAGCAAUAUUACGGAAC | -3.3 ± 0.19 | -0.753 ± 0.17
86 | GUACAGCAAUAUUACGGAGC | -3.06 ± 0.14 | -2.17 ± 0.15
87 | GUACAGCAAUAUUACGGAUU | -2.88 ± 0.11 | -0.823 ± 0.084
88 | GUACAGCAAUAUUACGGCAA | -1.59 ± 0.15 | -1.32 ± 0.12
89 | GUACAGCAAUAUUACGGUAC | -4.08 ± 0.43 | -2.8 ± 0.26
90 | GUACAGCAAUAUUACGGUCC | -0.203 ± 0.11 | -0.766 ± 0.13
91 | GUACAGCAAUAUUACGUAAU | -1.66 ± 0.087 | -0.807 ± 0.11
92 | GUACAGCAAUAUUACGUCUG | -2.04 ± 0.23 | -2.09 ± 0.18
93 | GUACAGCAAUAUUACGUGCC | -2.93 ± 0.13 | -2.54 ± 0.22
94 | GUACAGCAAUAUUACGUUCA | -1.51 ± 0.15 | -0.775 ± 0.17
95 | GUAGAGCAAUAUUACGAAAG | -1.56 ± 0.32 | 
96 | GUAGAGCAAUAUUACGAAUG | -3.89 ± 0.3 | -2.16 ± 0.21
97 | GUAGAGCAAUAUUACGAGUA | -3.5 ± 0.28 | -1.69 ± 0.29
